# Like-named read-outs stand apart in the source and are kept apart here.
# Assays:
# [1] = molecular target: photosystem I complex of Prochlorococcus marinus ecotype MED4 (Prochlorococcus marinus MED4 (endogenous in thylakoid membranes)); test: atomic force microscopy
# [2] = molecular target: photosystem I complex of Prochlorococcus marinus ecotype MED4 (Prochlorococcus marinus MED4 (endogenous in thylakoid membranes)); test: atomic force microscopy; remark: listed apart in the source
# [3] = molecular target: photosystem I complex of Prochlorococcus marinus ecotype MIT9313 (Prochlorococcus marinus MIT9313 (endogenous in thylakoid membranes)); test: atomic force microscopy
# [4] = molecular target: photosystem I complex of Prochlorococcus marinus ecotype SS120 (Prochlorococcus marinus SS120 (endogenous in thylakoid membranes)); test: atomic force microscopy
# [5] = molecular target: photosystem I complex of Synechocystis sp. PCC 6803; test: negative stain TEM
substance,measurement,setting,value
photosystem I complex of Prochlorococcus marinus ecotype MED4,ratio of PSI monomer equivalents in trimeric vs monomeric or dimeric PSI,[1],5.3
same,stoichiometry N,[1],2
same,stoichiometry N,[2],3
photosystem I complex of Prochlorococcus marinus ecotype MIT9313,ratio of trimeric to non-trimeric PSI,[3],44.5
same,stoichiometry N,[3],3
photosystem I complex of Prochlorococcus marinus ecotype SS120,stoichiometry N,[4],3
photosystem I complex of Synechocystis sp. PCC 6803,stoichiometry N,[5],3

# — PMC6699766
